Measurements reported in patent publication US20040038369A1, “Airway-specific trypsin-like enzymes and method of using the same” (priority 2000, published 2004).

Tested on: NCI-H292 cells
Test: AB-PAS staining of mucus glycoprotein in NCI-H292 cells
Type: cell-based, human
Details: FIG. 1 and 2
Protocol: NCI-H292 cells (human pulmonary mucoepidermoid tumor cell strain, purchased from ATCC) were suspended in 10% FCS (Fetal Calf Serum)-containing RPMI-1640 (produced by Gibco Corp.), sowed on a Lab-Tek 8 well chamber slide (produced by Nunc Corp.) in a density of 6.0×10^4 cells/cm^2, cultured for 72 hours, subjected to the replacement of the culture solution by RPMI-1640 containing 0.1% of BSA, and further cultured for 24 hours.
On the day of the treatment, the culture solution of each well was replaced by RPMI-1640 (containing 0.1% BSA) containing EGF (5 ng/mL, produced by Becton Dickinson Corp.), HB-EGF (5 ng/mL, produced by R & D Corp.), TGF-α (5 ng/mL, produced by Peprotech Corp.), or PBS to start the treatment. Then, the cells were incubated at 37° C. for 24 hours.
After the prescribed 24 hours treatment, the culture supernatant was removed. The residue was once washed with PBS, mixed with 4% paraformaldehyde/PBS, and then allowed to stand at room temperature for one hour to immobilize the cells. The immobilized cells were twice washed with Milli Q water and then stained with AB-PAS. The staining was carried out according to a book (“All of new dyeing methods” p136-150 (Iyaku Shuppansha)). […]

B1: EGF: Epidermal Growth Factor, EGFR ligand, produced by Becton Dickinson Corp. (protein)
chain: PQHWSCPEGTLAGNGNSTCVGPAPFLIFSHGNSIFRIDTEGTNYEQLVVDAGVSVIMDFHYNEKRIYWVDLERQLLQRVFLNGSRQERVCNIEKNVSGMAINWINEEVIWSNQQEGIITVTDMKGNNSHILLSALKYPANVAVDPVERFIFWSSEVAGSLYRADLDGVGVKALLETSEKITAVSLDVLDKRLFWIQYNREGSNSLICSCDYDGGSVHISKHPTQHNLFAMSLFGDRIFYSTWKMKTIWIANKHTGKDMVRINLHSSFVPLGELKVVHPLAQPKAEDDTWEPEQKLCKLRKGNCSSTVCGQDLQSHLCMCAEGYALSRDRKYCEDVNECAFWNHGCTLGCKNTPGSYYCTCPVGFVLLPDGKRCHQLVSCPRNVSECSHDCVLTSEGPLCFCPEGSVLERDGKTCSGCSSPDNGGCSQLCVPLSPVSWECDCFPGYDLQLDEKSCAASGPQPFLLFANSQDIRHMHFDGTDYGTLLSQQMGMVYALDHDPVENKIYFAHTALKWIERANMDGSQRERLIEEGVDVPEGLAVDWIGRRFYWTDRGKSLIGRSDLNGKRSKIITKENISQPRGIAVHPMAKRLFWTDTGINPRIESSSLQGLGRLVIASSDLIWPSGITIDFLTDKLYWCDAKQSVIEMANLDGSKRRRLTQNDVGHPFAVAVFEDYVWFSDWAMPSVMRVNKRTGKDRVRLQGSMLKPSSLVVVHPLAKPGADPCLYQNGGCEHICKKRLGTAWCSCREGFMKASDGKTCLALDGHQLLAGGEVDLKNQVTPLDILSKTRVSEDNITESQHMLVAEIMVSDQDDCAPVGCSMYARCISEGEDATCQCLKGFAGDGKLCSDIDECEMGVPVCPPASSKCINTEGGYVCRCSEGYQGDGIHCLDIDECQLGEHSCGENASCTNTEGGYTCMCAGRLSEPGLICPDSTPPPHLREDDHHYSVRNSDSECPLSHDGYCLHDGVCMYIEALDKYACNCVVGYIGERCQYRDLKWWELRHAGHGQQQKVIVVAVCVVVLVMLLLLSLWGAHYYRTQKLLSKNPKNPYEESSRDVRSRRPADTEDGMSSCPQPWFVVIKEHQDLKNGGQPVAGEDGQAADGSMQPTSWRQEPQLCGMGTEQGCWIPVSSDKGSCPQVMERSFHMPSYGTQTLEGGVEKPHSLLSANPLWQQRALDPPHQMELTQ
- production of the mucus glycoprotein: promoted
